Data on two molecules can be found in patent publication US20100144530A1, “IDENTIFICATION OF A NEW CLASS OF EPSP SYNTHASES” (priority 2005, published 2010).

The test relates to ΔaroA E. coli cells. Description: Complementation of ΔaroA E. coli cells (functional EPSP synthase). The test is classed as cell-based. To be noted: plasmid transformed into ΔaroA E. coli cells.

B1: grg9: EPSP synthase ORF from Agrobacterium tumefaciens strain C58, in plasmid pAX702 (SEQ ID NO:3/4) (protein)
chain: MIELTITPPGHPLSGKVEPPGSKSITNRALLLAGLAKGKSHLSGALKSDDTLYMAEALREMGVKVTEPDATTFVVEGTGVLQQPEKPLFLGNAGTATRFLTAAGALVDGAVIIDGDEHMRKRPILPLVQALRALGVEADAPTGCPPVTVRGKGMGFPKGSVTIDANLSSQYVSALLMAAACGDKPVDIILKGEEIGAKGYIDLTTSAMEAFGAKVERVSNAIWRVHPTGYTATDFHIEPDASAATYLWGAELLTGGAIDIGTPADKFTQPDAKAYEVMAQFPHLPAEIDGSQMQDAIPTIAVIAAFNETPVRFVGIANLRVKECDRIRAVSLGLNEIREGLAHEEGDDLIVHADPSLAGQTVDASIDTFADHRIAMSFALAALKIGGIAIQNPACVAKTYPGYWKALASLGVDYTEKESAAEPQH
As to B1, the “Complementation of the aroA deletion” value is on record as “complement the deletion”.

B2: grg6: EPSP synthase ORF from Pseudomonas syringae pv. tomato strain DC3000, in plasmid pAX703 (SEQ ID NO:1/2) (protein)
chain: MRPQATLTVMPVERPLVGRVSPPGSKSITNRALLLAGLAKGTSRLTGALKSDDTRVMSEALRLMGVQVDEPDDSTFVVTSSGHWQAPQQALFLGNAGTATRFLTAALANFEGDFVVDGDEYMRKRPIGPLVDALQRMGVEISAPSGCPPVAIKGKGGLQAGRIEIDGNLSSQYVSALLMAGACGKGSLEVALTGSEIGARGYVDLTLAAMQAFGAEVQAIGDAAWKVSATGYHATDFHIEPDASAATYLWAAQALTEGNIDLGVASDAFTQPDALASQIIDSFPNMPAVIDGSQMQDAIPTLAVLAAFNRQPVRFVGIANLRVKECDRISALCDGLCAIAPGLAVEEGDDLIVHANPALAGTTVNALIDTHSDHRIAMCFALAGLKIKGIHIQDPDCVAKTYPGYWDALASLGVSVQR
Regarding B2, the “Complementation of the aroA deletion” value is “complement the deletion”.
